Holding throughout (assay): cell-based or functional assay
The target of assay [1] is T1, factor VIIIa A1/A3C1C2 dimer, Y1786F (human, UniProt P00451 20-391; P00451 1709-2351).
T1 sequence 1: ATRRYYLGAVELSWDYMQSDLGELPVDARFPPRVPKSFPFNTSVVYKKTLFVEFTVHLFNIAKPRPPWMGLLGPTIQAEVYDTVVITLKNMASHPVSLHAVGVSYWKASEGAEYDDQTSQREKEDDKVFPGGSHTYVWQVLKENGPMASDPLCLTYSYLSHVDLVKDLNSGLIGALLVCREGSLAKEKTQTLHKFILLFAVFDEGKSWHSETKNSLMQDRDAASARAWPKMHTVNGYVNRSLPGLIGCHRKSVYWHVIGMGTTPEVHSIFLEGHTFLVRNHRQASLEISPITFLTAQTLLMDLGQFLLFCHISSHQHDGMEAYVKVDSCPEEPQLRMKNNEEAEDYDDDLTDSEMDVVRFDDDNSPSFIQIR
T1 sequence 2: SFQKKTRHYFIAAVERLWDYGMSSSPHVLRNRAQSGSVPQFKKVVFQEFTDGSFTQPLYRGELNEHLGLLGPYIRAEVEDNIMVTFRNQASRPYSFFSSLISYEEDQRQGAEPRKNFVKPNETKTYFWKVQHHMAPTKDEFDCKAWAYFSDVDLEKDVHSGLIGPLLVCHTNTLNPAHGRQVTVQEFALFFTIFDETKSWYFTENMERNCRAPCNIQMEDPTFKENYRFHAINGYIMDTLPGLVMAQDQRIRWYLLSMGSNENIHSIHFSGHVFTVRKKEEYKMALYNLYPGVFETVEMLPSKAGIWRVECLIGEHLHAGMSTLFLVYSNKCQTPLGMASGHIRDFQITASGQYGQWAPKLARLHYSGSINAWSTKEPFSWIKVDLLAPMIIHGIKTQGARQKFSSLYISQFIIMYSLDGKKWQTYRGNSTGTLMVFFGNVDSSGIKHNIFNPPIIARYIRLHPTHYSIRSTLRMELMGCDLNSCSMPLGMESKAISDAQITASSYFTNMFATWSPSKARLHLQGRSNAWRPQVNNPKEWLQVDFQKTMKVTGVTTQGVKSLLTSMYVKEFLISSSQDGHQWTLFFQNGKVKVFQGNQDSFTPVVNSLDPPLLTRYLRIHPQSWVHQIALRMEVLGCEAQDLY

Assay [2] addresses T2, factor VIIIa A1/A3C1C2 dimer, Q1820A (human, UniProt P00451 20-391; P00451 1709-2351).
T2 sequence 1: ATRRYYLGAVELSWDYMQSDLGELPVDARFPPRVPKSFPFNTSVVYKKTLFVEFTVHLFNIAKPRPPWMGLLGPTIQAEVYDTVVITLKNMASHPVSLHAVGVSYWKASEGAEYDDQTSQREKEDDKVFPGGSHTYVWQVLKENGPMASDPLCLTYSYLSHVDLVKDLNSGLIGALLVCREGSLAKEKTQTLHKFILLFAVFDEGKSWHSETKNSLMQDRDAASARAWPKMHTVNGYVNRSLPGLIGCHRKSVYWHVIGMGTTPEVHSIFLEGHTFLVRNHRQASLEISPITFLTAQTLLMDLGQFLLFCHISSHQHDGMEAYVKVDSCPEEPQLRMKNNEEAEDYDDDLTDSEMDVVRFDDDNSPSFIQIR
T2 sequence 2: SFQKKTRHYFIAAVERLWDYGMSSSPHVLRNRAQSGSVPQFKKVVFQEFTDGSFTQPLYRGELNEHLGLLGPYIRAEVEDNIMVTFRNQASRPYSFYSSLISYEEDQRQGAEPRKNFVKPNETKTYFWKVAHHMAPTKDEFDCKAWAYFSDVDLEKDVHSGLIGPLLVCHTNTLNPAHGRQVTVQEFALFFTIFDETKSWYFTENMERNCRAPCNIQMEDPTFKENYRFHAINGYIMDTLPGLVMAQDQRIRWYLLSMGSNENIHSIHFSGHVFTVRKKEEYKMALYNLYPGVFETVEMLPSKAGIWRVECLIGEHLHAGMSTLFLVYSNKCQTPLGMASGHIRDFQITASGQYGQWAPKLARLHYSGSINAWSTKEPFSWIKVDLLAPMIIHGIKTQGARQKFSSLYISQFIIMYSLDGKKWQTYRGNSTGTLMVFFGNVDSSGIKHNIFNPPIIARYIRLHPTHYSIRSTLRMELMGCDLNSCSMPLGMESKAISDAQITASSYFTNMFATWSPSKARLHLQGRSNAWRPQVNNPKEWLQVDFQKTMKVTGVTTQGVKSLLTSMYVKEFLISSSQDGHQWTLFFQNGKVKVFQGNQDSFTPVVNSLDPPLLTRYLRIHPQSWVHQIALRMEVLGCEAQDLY

Assay [3] addresses T3, factor VIIIa A1/A3C1C2 dimer, D302A (human, UniProt P00451 20-391; P00451 1709-2351).
T3 chain 1: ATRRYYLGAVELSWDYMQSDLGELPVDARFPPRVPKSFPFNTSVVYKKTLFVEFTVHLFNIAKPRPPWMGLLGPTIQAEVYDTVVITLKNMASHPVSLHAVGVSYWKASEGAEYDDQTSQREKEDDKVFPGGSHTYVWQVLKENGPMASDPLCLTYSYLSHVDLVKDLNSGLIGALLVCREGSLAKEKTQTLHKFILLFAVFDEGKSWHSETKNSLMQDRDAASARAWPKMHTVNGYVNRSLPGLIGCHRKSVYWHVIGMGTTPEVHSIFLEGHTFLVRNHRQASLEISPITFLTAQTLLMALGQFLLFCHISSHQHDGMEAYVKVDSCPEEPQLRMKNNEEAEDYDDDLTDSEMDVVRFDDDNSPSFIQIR
T3 chain 2: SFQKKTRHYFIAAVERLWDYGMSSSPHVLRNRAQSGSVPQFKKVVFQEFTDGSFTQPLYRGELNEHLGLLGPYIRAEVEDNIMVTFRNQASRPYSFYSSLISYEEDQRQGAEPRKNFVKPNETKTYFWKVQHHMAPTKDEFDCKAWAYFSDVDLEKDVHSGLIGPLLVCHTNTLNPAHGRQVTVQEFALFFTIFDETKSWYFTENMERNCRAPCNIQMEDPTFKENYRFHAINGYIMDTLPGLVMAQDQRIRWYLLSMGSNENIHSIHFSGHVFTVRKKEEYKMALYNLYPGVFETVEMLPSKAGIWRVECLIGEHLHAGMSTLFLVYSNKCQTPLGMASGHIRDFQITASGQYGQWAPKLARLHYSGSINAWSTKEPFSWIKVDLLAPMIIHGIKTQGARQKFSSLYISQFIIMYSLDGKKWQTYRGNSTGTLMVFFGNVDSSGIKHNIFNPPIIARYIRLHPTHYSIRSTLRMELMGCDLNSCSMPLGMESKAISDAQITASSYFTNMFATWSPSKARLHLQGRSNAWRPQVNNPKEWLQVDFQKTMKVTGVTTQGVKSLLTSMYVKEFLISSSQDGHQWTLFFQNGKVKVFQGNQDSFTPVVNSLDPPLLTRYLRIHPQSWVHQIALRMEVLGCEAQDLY

Assay [4] addresses T4, factor VIIIa A1/A3C1C2 dimer, wild type (human, UniProt P00451 20-391; P00451 1709-2351).
T4 sequence 1: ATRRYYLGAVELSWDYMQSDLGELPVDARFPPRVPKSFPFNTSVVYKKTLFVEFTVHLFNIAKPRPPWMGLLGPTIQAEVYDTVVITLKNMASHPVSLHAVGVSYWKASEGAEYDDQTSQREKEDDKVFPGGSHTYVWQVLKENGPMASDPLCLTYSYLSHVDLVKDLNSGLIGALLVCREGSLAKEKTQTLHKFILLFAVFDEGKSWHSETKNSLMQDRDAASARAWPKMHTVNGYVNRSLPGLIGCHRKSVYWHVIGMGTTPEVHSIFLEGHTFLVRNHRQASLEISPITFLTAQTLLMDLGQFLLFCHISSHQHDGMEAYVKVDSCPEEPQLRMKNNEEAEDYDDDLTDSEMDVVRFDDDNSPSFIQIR
T4 sequence 2: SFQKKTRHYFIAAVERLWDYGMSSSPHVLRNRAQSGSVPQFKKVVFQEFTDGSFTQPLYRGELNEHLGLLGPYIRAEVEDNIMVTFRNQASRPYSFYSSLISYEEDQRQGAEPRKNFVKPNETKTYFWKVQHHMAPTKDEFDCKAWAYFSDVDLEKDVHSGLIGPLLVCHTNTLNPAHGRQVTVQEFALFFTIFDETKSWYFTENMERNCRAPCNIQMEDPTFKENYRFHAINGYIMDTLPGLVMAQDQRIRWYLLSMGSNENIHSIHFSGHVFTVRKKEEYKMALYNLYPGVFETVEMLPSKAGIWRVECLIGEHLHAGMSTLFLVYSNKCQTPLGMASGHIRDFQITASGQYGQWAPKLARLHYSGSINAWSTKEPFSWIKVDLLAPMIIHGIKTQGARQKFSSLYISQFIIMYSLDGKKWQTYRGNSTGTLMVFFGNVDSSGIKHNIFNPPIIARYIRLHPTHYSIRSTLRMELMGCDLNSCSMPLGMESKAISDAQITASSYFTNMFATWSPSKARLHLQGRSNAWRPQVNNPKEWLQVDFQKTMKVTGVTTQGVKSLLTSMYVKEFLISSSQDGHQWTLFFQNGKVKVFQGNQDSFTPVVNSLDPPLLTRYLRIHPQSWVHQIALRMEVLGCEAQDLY

B1: factor VIIIa A2 subunit, wild type (other)
chain: SVAKKHPKTWVHYIAAEEEDWDYAPLVLAPDDRSYKSQYLNNGPQRIGRKYKKVRFMAYTDETFKTREAIQHESGILGPLLYGEVGDTLLIIFKNQASRPYNIYPHGITDVRPLYSRRLPKGVKHLKDFPILPGEIFKYKWTVTVEDGPTKSDPRCLTRYYSSFVNMERDLASGLIGPLLICYKESVDQRGNQIMSDKRNVILFSVFDENRSWYLTENIQRFLPNPAGVQLEDPEFQASNIMHSINGYVFDSLQLSVCLHEVAYWYILSIGAQTDFLSVFFSGYTFKHKMVYEDTLTLFPFSGETVFMSMENPGLWILGCHNSDFRNRGMTALLKVSSCDKNTGDYYEDSYEDISAYLLSKNNAIEPR
With B1, the “Factor VIIIa decay rate relative to wild type, FIXa (+)” value was 20.9 relative to wild type in assay [1], 1.01 relative to wild type in assay [2], 0.43 relative to wild type in assay [3] and 1 relative to wild type in assay [4]. Also, the figures for the “Factor VIIIa decay rate relative to wild type, FIXa (-)” value in assay [1] and in assay [4] were 17 relative to wild type and 1 relative to wild type, respectively. Further, the “Factor VIIIa decay rate, FIXa (+)” value in assay [1] came out at 0.236 min⁻¹; in assay [2], 0.0114 min⁻¹; in assay [3] it was 0.0049 min⁻¹; in assay [4], 0.0113 min⁻¹. Also, the “Factor VIIIa decay rate, FIXa (-)” value is 1.07 min⁻¹ in assay [1] and 0.0631 min⁻¹ in assay [4].
